{
  "source": "patent US7217548B2",
  "about": "“N-acetylglucosaminlytransferase and polynucleotide encoding the same” (National Institute of Advanced Industrial Science and …, priority 2000, dated 2007)",
  "tested_on": "T1, CC(=O)N[C@@H](C)C(=O)N[C@@H](C)C(=O)N1CCC[C@H]1C(=O)N[C@H](C(=O)N1CCC[C@H]1C(=O)N[C@H](C(=O)N[C@@H](C)C(=O)N[C@@H](C)C(=O)N1CCC[C@H]1C(N)=O)C(C)C)[C@@H](C)O[C@H]1O[C@H](CO)[C@@H](O)[C@H](O)[C@@H]1O",
  "T1 construct": "595 amino acids from 66: Ser thereof (66: Ser to 660: Thr), respectively; Ig kappa chain secretory signal (N); made in house; host or cells: HEK293T (transient, secreted into serum-free medium)",
  "test": "Substrate specificity and kinetic parameters of solubilized human OMGnT enzyme (L)",
  "format": "biochemical",
  "conditions": "other: 125 mM MOPS pH7.3, 0.2 mM UDP-GlcNAc, 7.5 mM MnCl2, 37° C., 2 hours, pH 7.3",
  "experimental": "[…] […] The reaction mixture was then filtered with a filter Ultrafree-MC (Millipore) having a pore size of 0.22 μm to remove solids, and analyzed by Wakopak 5C18-200 column (4.6×250 mm, Wako Pure Chemical Industries, Ltd.). The separation was carried out using concentration gradient with Solution A and Solution B at a flow rate of 1.0 ml/min. […] Peptide detection was carried out at 214 nm, and the radioactivity of each fraction was assayed using a liquid scintillation counter.\nThe activity of GnT-1 was assayed with a method by Yoshida et al. [Yoshida, S., Suzuki, M., Yamano, S., Takeuchi, M., Ikenaga, H., Kioka, N., Sakai, H., and Komano, T., Glycobiology, (1999), 9, 53–58] as described below. A 20 μl reaction solution was prepared by adding an enzyme source thereto so as to have a final concentration of 100 mM MES (pH 6.0), 20 mM MnCl2, 5 μM Manα1–6(Manα1–3)Manα1–6(Manα1–3)Manβ1–4GlcNAcβ1–4GlcNAc-PA(M5GN2-PA; Takara Shuzo, PA-Sugar Chain 017), 1 mM UDP-GlcNAc, 100 mM GlcNAc, 5 mM AMP, 1% Triton X-100, and 0.2% BSA. The reaction solution was incubated at 37° C. for 1 hour, and the reaction was terminated in boiling water. Thereafter, the reaction solution was analyzed by a reverse phase HPLC (Cosmosil 5C18-AR column) available from Nacalai Tesque. […]",
  "data": [
    {"substance": "His-Xpress-sOMGnT(L) (Homo sapiens; M623V)", "values": [
      {"measurement": "Km", "result": 1850, "unit": "µM"}
    ]}
  ]
}
